In patent US20240132578A1:

Columns and labels:
Assay in all cases: cell-based or functional assay
[1] = molecular target: HIV-1 Env of isolate MGRM-C-017 (subtype C), on pseudovirus (HIV-1)
[2] = molecular target: HIV-1 Env of isolate MGRM-D-008 (HIV-1)
[3] = molecular target: HIV-1 Env of isolate MG RM-A-011 (pseudovirus) (HIV-1)
[4] = molecular target: HIV-1 Env of pseudovirus isolate MGRM-Chronic-B-003 (clade B) (HIV-1)
[5] = molecular target: HIV-1 Env of pseudovirus isolate 6535.3 (clade B) (HIV-1)
[6] = molecular target: HIV-1 Env of pseudovirus MGRM-D-024 (HIV-1)
[7] = molecular target: HIV-1 envelope glycoprotein (Env) of isolate MGRM-AE-007 (HIV-1)
[8] = molecular target: HIV-1 Env of pseudovirus MGRM-F1-018 (HIV-1)
[9] = molecular target: HIV-1 Env of pseudovirus MGRM-F1-010 (clade F) (HIV-1)
[10] = molecular target: HIV-1 envelope glycoprotein (Env) of isolate MGRM-C-022 (HIV-1)
[11] = molecular target: HIV-1 envelope glycoprotein (Env) of isolate MGRM-C-008 (HIV-1)
[12] = molecular target: HIV-1 Env of isolate MGRM-Chronic-B-003, clade B (HIV-1)
[13] = molecular target: HIV-1 Env of isolate MGRM-D-029 (clade D pseudovirus) (HIV-1)
[14] = molecular target: HIV-1 Env of isolate APV_6, clade B (HIV-1)
[15] = molecular target: HIV-1 Env of pseudovirus MGRM-F1-012 (clade F) (HIV-1)
[16] = molecular target: HIV-1 Env of isolate MGRM-A-010 (clade A pseudovirus) (HIV-1)
[17] = molecular target: HIV-1 92RW020 envelope (Env) on pseudovirus (HIV-1)
[18] = molecular target: HIV-1 Env of pseudovirus MGRM-F1-008 (clade F) (HIV-1)
[19] = molecular target: HIV-1 92UG024 envelope (Env) on pseudovirus (HIV-1)
[20] = molecular target: HIV-1 Env of isolate 94UG103 (Clade A) (HIV-1)
[21] = molecular target: HIV-1 Env of isolate MGRM-D-026 (clade D pseudovirus) (HIV-1)

Chain of PGT-144 (4970_K22) (antibody) (VH): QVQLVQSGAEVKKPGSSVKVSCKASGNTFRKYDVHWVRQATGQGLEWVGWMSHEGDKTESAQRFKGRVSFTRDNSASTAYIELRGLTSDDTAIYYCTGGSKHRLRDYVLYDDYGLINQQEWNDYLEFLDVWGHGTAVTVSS
Chain of PGT-144 (4970_K22) (antibody) (VL): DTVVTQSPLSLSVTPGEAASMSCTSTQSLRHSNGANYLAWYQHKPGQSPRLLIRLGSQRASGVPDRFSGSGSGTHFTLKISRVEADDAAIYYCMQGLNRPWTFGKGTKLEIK
Chain of PGT-141 (4964_G22; 4993_K13) (antibody) (VH): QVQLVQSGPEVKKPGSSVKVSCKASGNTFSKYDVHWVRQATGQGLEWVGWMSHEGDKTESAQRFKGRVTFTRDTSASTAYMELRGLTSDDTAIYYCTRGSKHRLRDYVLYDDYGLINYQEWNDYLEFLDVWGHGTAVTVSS
Chain of PGT-141 (4964_G22; 4993_K13) (antibody) (VL): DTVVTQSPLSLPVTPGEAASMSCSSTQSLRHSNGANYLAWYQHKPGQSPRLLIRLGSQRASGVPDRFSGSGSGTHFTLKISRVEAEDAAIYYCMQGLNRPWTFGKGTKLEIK
Chain of 4980_N08 (PGT-143) (antibody) (VH): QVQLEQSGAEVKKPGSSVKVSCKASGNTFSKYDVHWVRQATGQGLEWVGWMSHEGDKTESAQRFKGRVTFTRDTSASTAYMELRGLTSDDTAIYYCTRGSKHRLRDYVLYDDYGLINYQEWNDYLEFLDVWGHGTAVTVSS
Chain of 4980_N08 (PGT-143) (antibody) (VL): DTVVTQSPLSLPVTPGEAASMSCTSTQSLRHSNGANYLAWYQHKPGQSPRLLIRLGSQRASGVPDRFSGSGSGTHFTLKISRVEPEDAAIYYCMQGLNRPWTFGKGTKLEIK
Chain of 4995_P16 (PGT-145) (antibody) (VH): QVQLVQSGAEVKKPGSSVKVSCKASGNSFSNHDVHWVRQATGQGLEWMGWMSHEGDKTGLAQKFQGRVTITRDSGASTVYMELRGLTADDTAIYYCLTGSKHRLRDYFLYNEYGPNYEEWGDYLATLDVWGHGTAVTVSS
Chain of 4995_P16 (PGT-145) (antibody) (VL): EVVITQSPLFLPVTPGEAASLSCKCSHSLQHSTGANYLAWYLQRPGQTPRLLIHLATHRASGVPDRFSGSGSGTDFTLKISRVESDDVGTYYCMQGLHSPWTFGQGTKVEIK
Chain of PGT-142 (4995_E20) (antibody) (VH): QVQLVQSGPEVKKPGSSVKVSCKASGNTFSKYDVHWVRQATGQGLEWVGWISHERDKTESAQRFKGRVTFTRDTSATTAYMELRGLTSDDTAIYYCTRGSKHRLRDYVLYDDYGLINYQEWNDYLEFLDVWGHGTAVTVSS
Chain of 1443_C16 (PG16) (TCN-116) (antibody) (VH): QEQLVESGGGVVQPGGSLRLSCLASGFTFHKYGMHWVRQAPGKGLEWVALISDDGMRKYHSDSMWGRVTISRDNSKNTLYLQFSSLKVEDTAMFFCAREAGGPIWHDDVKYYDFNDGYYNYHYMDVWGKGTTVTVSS
Chain of 1443_C16 (PG16) (TCN-116) (antibody) (VL): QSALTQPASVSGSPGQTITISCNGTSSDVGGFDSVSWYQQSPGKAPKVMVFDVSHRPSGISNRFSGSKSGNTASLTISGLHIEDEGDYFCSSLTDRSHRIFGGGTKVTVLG

## 4995_P16 (PGT-145) (antibody)
[1]
  IC50, single-round pseudovirus neutralization: > 50 µg/mL
[2]
  IC50 (µg/mL), pseudovirus neutralization: 0.025 µg/mL
[3]
  IC50 (µg/mL), single-round pseudovirus neutralization: 0.484 µg/mL
[4]
  IC50, pseudovirus neutralization: 0.045 µg/mL
[5]
  IC50, pseudovirus neutralization: > 50 µg/mL

## PGT-141 (4964_G22; 4993_K13) (antibody)
[6]
  IC50, pseudovirus neutralization: > 50 µg/mL
[7]
  IC50: 33.1 µg/mL
[8]
  IC50, pseudovirus neutralization: 0.785 µg/mL

## 4970_K22 (PGT-144) (antibody)
[1]
  IC50, single-round pseudovirus neutralization: 23 µg/mL
[2]
  IC50 (µg/mL), pseudovirus neutralization: 9.85 µg/mL
[3]
  IC50 (µg/mL), single-round pseudovirus neutralization: > 50 µg/mL
[4]
  IC50, pseudovirus neutralization: 7.41 µg/mL
[5]
  IC50, pseudovirus neutralization: > 50 µg/mL

## 2F5 (antibody)
[9]
  IC50: 14.6 µg/mL
[10]
  IC50 (µg/ml), pseudovirus neutralization: > 50 µg/mL
[11]
  IC50 (µg/ml), pseudovirus neutralization: > 50 µg/mL
[12]
  IC50 (µg/ml), pseudovirus neutralization: 1 µg/mL
[13]
  IC50, pseudovirus neutralization: > 50 µg/mL
[14]
  IC50 (µg/ml), pseudovirus neutralization: 0.25 µg/mL
[15]
  IC50: > 50 µg/mL
[16]
  IC50 (µg/ml), pseudovirus neutralization: 20.8 µg/mL
[17]
  neutralization IC50: 3.37 µg/mL
[18]
  IC50: 1.61 µg/mL
[19]
  neutralization IC50: 1.27 µg/mL
[20]
  IC90 (neutralization of pseudovirus): 46.6 µg/mL
[21]
  IC50, pseudovirus neutralization: 4.37 µg/mL

## PGT-142 (4995_E20) (antibody)
[6]
  IC50, pseudovirus neutralization: > 50 µg/mL
[7]
  IC50: 6.7 µg/mL
[8]
  IC50, pseudovirus neutralization: 0.404 µg/mL

## 2G12 (antibody)
[10]
  IC50 (µg/ml), pseudovirus neutralization: > 50 µg/mL
[11]
  IC50 (µg/ml), pseudovirus neutralization: > 50 µg/mL
[12]
  IC50 (µg/ml), pseudovirus neutralization: 0.06 µg/mL
[13]
  IC50, pseudovirus neutralization: > 50 µg/mL
[14]
  IC50 (µg/ml), pseudovirus neutralization: 1.9 µg/mL
[15]
  IC50: 1.81 µg/mL
[16]
  IC50 (µg/ml), pseudovirus neutralization: 17 µg/mL
[17]
  neutralization IC50: 0.56 µg/mL
[18]
  IC50: > 50 µg/mL
[19]
  neutralization IC50: 0.59 µg/mL
[20]
  IC90 (neutralization of pseudovirus): > 50 µg/mL
[21]
  IC50, pseudovirus neutralization: > 50 µg/mL

## PGT-145 (4995_P16) (antibody)
[6]
  IC50, pseudovirus neutralization: 0.224 µg/mL
[7]
  IC50: 0.181 µg/mL
[8]
  IC50, pseudovirus neutralization: 1.02 µg/mL

## 1495_C14 (PGC14) (antibody)
[9]
  IC50: > 50 µg/mL
[10]
  IC50 (µg/ml), pseudovirus neutralization: > 50 µg/mL
[11]
  IC50 (µg/ml), pseudovirus neutralization: > 50 µg/mL
[12]
  IC50 (µg/ml), pseudovirus neutralization: > 50 µg/mL
[13]
  IC50, pseudovirus neutralization: > 50 µg/mL
[14]
  IC50 (µg/ml), pseudovirus neutralization: 23 µg/mL
[15]
  IC50: > 50 µg/mL
[16]
  IC50 (µg/ml), pseudovirus neutralization: > 50 µg/mL
[17]
  neutralization IC50: 28.6 µg/mL
[18]
  IC50: > 50 µg/mL
[19]
  neutralization IC50: > 50 µg/mL
[21]
  IC50, pseudovirus neutralization: > 50 µg/mL

## 4995_E20 (PGT-142) (antibody)
[1]
  IC50, single-round pseudovirus neutralization: 1.11 µg/mL
[2]
  IC50 (µg/mL), pseudovirus neutralization: 0.174 µg/mL
[3]
  IC50 (µg/mL), single-round pseudovirus neutralization: > 50 µg/mL
[4]
  IC50, pseudovirus neutralization: 0.484 µg/mL
[5]
  IC50, pseudovirus neutralization: > 50 µg/mL

## PGT-143 (4980_N08) (antibody)
[6]
  IC50, pseudovirus neutralization: > 50 µg/mL
[7]
  IC50: 13.6 µg/mL
[8]
  IC50, pseudovirus neutralization: 0.701 µg/mL

## 1443_C16 (PG16) (TCN-116) (antibody)
[9]
  IC50: 0.01 µg/mL
[10]
  IC50 (µg/ml), pseudovirus neutralization: 0.25 µg/mL
[11]
  IC50 (µg/ml), pseudovirus neutralization: > 50 µg/mL
[12]
  IC50 (µg/ml), pseudovirus neutralization: 0.19 µg/mL
[13]
  IC50, pseudovirus neutralization: > 50 µg/mL
[14]
  IC50 (µg/ml), pseudovirus neutralization: 0.29 µg/mL
[15]
  IC50: 0.003 µg/mL
[16]
  IC50 (µg/ml), pseudovirus neutralization: 0.004 µg/mL
[17]
  neutralization IC50: 0.004 µg/mL
[18]
  IC50: > 50 µg/mL
[19]
  neutralization IC50: > 50 µg/mL
[20]
  IC90 (neutralization of pseudovirus): 1.59 µg/mL
[21]
  IC50, pseudovirus neutralization: > 50 µg/mL

## PGT-144 (4970_K22) (antibody)
[6]
  IC50, pseudovirus neutralization: > 50 µg/mL
[7]
  IC50: > 50 µg/mL
[8]
  IC50, pseudovirus neutralization: > 50 µg/mL

## VRC01 (antibody)
[6]
  IC50, pseudovirus neutralization: 0.366 µg/mL
[1]
  IC50, single-round pseudovirus neutralization: 0.366 µg/mL
[2]
  IC50 (µg/mL), pseudovirus neutralization: 0.854 µg/mL
[7]
  IC50: 0.835 µg/mL
[3]
  IC50 (µg/mL), single-round pseudovirus neutralization: 0.273 µg/mL
[4]
  IC50, pseudovirus neutralization: 0.1 µg/mL
[8]
  IC50, pseudovirus neutralization: 0.032 µg/mL
[5]
  IC50, pseudovirus neutralization: 1.75 µg/mL

## 4980_N08 (PGT-143) (antibody)
[1]
  IC50, single-round pseudovirus neutralization: 5.17 µg/mL
[2]
  IC50 (µg/mL), pseudovirus neutralization: 0.153 µg/mL
[3]
  IC50 (µg/mL), single-round pseudovirus neutralization: > 50 µg/mL
[4]
  IC50, pseudovirus neutralization: 0.854 µg/mL
[5]
  IC50, pseudovirus neutralization: > 50 µg/mL

## 4993_K13 (PGT-141) (antibody)
[1]
  IC50, single-round pseudovirus neutralization: 4.02 µg/mL
[2]
  IC50 (µg/mL), pseudovirus neutralization: 0.371 µg/mL
[3]
  IC50 (µg/mL), single-round pseudovirus neutralization: > 50 µg/mL
[4]
  IC50, pseudovirus neutralization: 0.4 µg/mL
[5]
  IC50, pseudovirus neutralization: > 50 µg/mL
